# From patent US20090162358A1 (GlaxoSmithKline, published 2009)
# Substitutions are numbered along the chain they refer to. Several values for one entry are separate records, joined by “and”; a condition that tells them apart may be missing. Equal values may be shown once. Ends that are not written are not given here. * marks the point of attachment. Biotin = O=C1N[C@H]2[C@H](CS[C@H]2CCCCC(=O)*)N1
# B1: straight graft light chain L0 in combination with H11 (antibody, V domains shown)
# VH: QVQLVQSGAEVKEPGASVKVSCKGSGFNIKVYYVHWLRQLPGKGLEWIGRIDPENGETIYTPKFQDKATLTVDTSTDTAYMELSSLRSEDTAVYYCVSSGYWGQGTLVTVSS
# VL: DIVMTQSPLSLPVTPGEPASISCRSSKSLLHRNGITYLYWYLQKPGQSPQLLIYQMSNLASGVPDRFSGSGSGTDFTLKISRVEAEDVGVYYCAQNLELWTFGQGTKVEIKR
# notes: Kabat positions; after CDRL1 the count on the entry is Kabat + 5; also called H11L0
# B2: humanised VL variant L14 in combination with H11 (antibody, V domains shown)
# VH: B1 VH
# VL: B1 VL with S48P, Q104G
# notes: Kabat positions; after CDRL1 the count on the entry is Kabat + 5; also called H11L14
# B3: humanised antibody H11L9 (antibody, human IgG1, kappa)
# heavy: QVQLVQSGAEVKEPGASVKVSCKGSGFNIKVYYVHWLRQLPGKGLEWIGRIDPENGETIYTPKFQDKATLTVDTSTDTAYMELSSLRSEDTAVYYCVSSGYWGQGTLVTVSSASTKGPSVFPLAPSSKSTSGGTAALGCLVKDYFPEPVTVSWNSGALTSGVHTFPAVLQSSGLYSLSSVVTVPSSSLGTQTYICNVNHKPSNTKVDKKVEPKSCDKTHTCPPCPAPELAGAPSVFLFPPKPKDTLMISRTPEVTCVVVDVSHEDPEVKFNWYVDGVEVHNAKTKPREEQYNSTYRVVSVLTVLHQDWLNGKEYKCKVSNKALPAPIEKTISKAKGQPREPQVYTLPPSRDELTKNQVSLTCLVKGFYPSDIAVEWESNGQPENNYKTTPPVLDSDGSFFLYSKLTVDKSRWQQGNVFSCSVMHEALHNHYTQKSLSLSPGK
# light: DIVMTQSPLSNPVTPGEPASISCRSSKSLLHRNGITYLYWYLQKPGQSPQLLIYQMSNLASGVPDRFSSSGSGTDFTLKISRVEAEDVGVYYCAQNLELWTFGQGTKVEIKRTVAAPSVFIFPPSDEQLKSGTASVVCLLNNFYPREAKVQWKVDNALQSGNSQESVTEQDSKDSTYSLSSTLTLSKADYEKHKVYACEVTHQGLSSPVTKSFNRGEC
# notes: Human IgG1 Fc mutated heavy chain, human kappa; also called H11L9(sup); H11L9(pur)
# B4: 6F6 murine monoclonal antibody (antibody, mouse IgG2a, V domains shown)
# VH: EVQLQQSGAELVEPGASVKLSCTGSGFNIKVYYVHWLKQLTEQGLEWIGRIDPENGETIYTPKFQDKATLTVDTSSNTAYLQLSSLTSEDAAVYYCVSSGYWGQGTTLTVSS
# VL: DIVMTQSAFSNPVTLGTSASISCRSSKSLLHRNGITYLYWYLQKPGQPPQLLIYQMSNLASGVPDRFTSSGSGTDFTLKISRVEAEDVGVYYCAQNLELWTFGGGTKLEIK
# notes: also called 6F6 parental monoclonal antibody; mouse 6F6 monoclonal antibody
# B5: chimeric 6F6 antibody (6F6c) (antibody, human IgG1, V domains shown)
# VH: B4 VH with T107L, L108V
# VL: B4 VL
# notes: Murine V regions on human IgG1 (Fc disabled) and human C kappa; also called 6F6 Chimera (pur); chimeric molecule of 6F6
# Legend:
# [1] = target: T1, human β-amyloid 1-40 (human, UniProt P05067 672-711); experiment: ELISA on human Aβ peptide (1-40), in combination with H11
# T1 construct: domain: β-amyloid (1-40); Used in solution over captured antibody (Biacore) or coated on ELISA plates; also called human Aβ peptide (1-40); Aβ peptide (1-40)
# [2] = target: T2, N-terminally truncated β-amyloid peptide lacking residues D23 to I31 (residues 32-40) (UniProt P05067 703-711, not fully specified); experiment: SRU BIND biosensor, biotinylated peptides on streptavidin plate
# T2 construct: domain: β-amyloid residues 32-40; Stands also for the shorter peptides of the set ('and beyond'); not shown: SGSG linker lengthened to make a 22-mer
# T2 peptide (looked up): Biotin-IGLMVGGVV-NH2
# Description: (§1) The minimal binding epitope of the humanised monoclonal antibody H11L9 was fine mapped using SRU BIND plate reader (SRU Biosystems). Three peptide sets were generated, based on an 18 amino acid sequence for fine mapping of the epitope: a) an alanine scanning peptide set for which 10 of the residues 27-37 were replaced consecutively with an alanine residue; b) a set of N-terminally truncated peptides where one residue was removed successively from the N-terminus of the 18-mer peptide starting with residue 23 and c) a set of C-terminally truncated peptides where one residue was removed successively from the C-terminus of the 18-mer peptide starting with residue 40.
# (§2) A streptavidin coated biosensor plate (SRU Biosystems) was washed with PBS and spun upside down to remove buffer and then washed with PBS, 0.1% tween 20 and 0.4% acetonitrile and spun upside down to remove residual buffer. Wells were resuspended in 100 ul of PBS, 0.1% tween 20 and 0.4% acetonitrile and read on the SRU plate reader to establish a baseline. […] The plate was then washed with PBS twice and then resuspended in 100 ul of PBS and the baseline re-measured. […] Binding of the antibodies was monitored. Plates were washed twice with PBS and resuspended in 100 ul of PBS, and the plates were re-measured and referenced back to the addition of antibody to look for weak binders that would be removed by the washing step. […]
# [3] = target: T3, C-terminally truncated β-amyloid peptide lacking residues V40 to G33 (residues 23-32) (UniProt P05067 694-703, not fully specified); experiment: as above
# T3 construct: domain: β-amyloid residues 23-32; Stands also for the shorter peptides of the set ('and beyond'); not shown: SGSG linker lengthened to make a 22-mer
# T3 peptide (looked up): Biotin-DVGSNKGAII-NH2
# Description: as §1, §2
# [4] = target: T1, human β-amyloid 1-40; experiment: SPR Biacore T100 at 37 C; antibody captured on anti-human IgG, Aβ 1-40 at 1-256 nM
# Protocol: (§3) Anti-human IgG (Biacore BR-1008-39) was coupled to a CM5 biosensor chip by primary amine coupling. The anti-beta amyloid antibodies were captured on this surface. Beta amyloid (1-40) was then passed over at 256, 64, 16, 4 and 1 nM, with a 0 nM (ie buffer alone passed over the captured antibody surface) used for double referencing. […] The data was analysed using the 1:1 model inherent to the T100. The run was carried out at 25° C. and 37° C. using HBS-EP as the running buffer.
# From this panel some constructs were also assessed for binding kinetics at physiological temperature.
# [5] = target: T1, human β-amyloid 1-40; experiment: SPR Biacore T100; antibody captured on anti-human IgG, Aβ 1-40 at 1-256 nM; 1:1 model
# Protocol: as §3
# [6] = target: T1, human β-amyloid 1-40; experiment: SPR Biacore T100, 25 C; antibody captured on protein A, Aβ 1-40 at 2-256 nM; mean of three experiments
# Protocol: The affinity of selected heavy and light chain combinations was determined using a Biacore T100 instrument. Three independent experiments were performed using humanised antibody immobilised via protein A surface Biacore chips and injection of β-amyloid 1-40 peptides. The chimeric molecule of 6F6 served as a reference molecule. For this Protein A was immobilised on a CM5 chip by primary amine coupling in accordance with manufactures recommendations. Anti-β-amyloid antibodies were captured on this surface and after a period of stabilisation human β-amyloid 1-40 was passed over at concentrations 256-2 nM in halving dilutions. A buffer injection over the captured antibody surface was used to double reference the data set in accordance with Biacore best practice. […] The work was carried out in HBS-EP at 25° C. Results are summarised in Table 13 as the mean of all three experiments.
# [7] = target: T4, biotinylated β-amyloid 1-40 (human Aβ1-40 peptide in solution, competition ELISA) (human, UniProt P05067 672-711, biotin, position not stated); experiment: competition ELISA: antibody pre-incubated with biotinylated Aβ 1-40, free Aβ captured on immobilised mouse 6F6 (competitor); Exp 1
# T4 construct: domain: β-amyloid (1-40)
# Protocol: (§4) 6F6c and humanised antibodies H₁₁L2, H11L9, H11L10, H11L12 and H11L13 were assessed for their ability to bind Aβ1-40 peptide in solution and inhibit the interaction of human Aβ1-40 peptide with mouse 6F6 monoclonal antibody in a competition ELISA. A constant concentration of biotinylated β-amyloid 1-40 was pre-incubated with serial diluted amounts of humanised 6F6 antibody variants. The mixture including complexed and free amyloid was then added to wells containing immobilised mouse 6F6 monoclonal antibody and incubated for 15 minutes at room temperature. Plates were washed and the amount of free β-amyloid that was still available for binding the immobilised parental 6F6 monoclonal antibody was then detected using streptavidin-HRP conjugate.
# [8] = target: T4, biotinylated β-amyloid 1-40 (human …); experiment: competition ELISA: antibody pre-incubated with biotinylated Aβ 1-40, free Aβ captured on immobilised mouse 6F6 (competitor); Exp 2
# Protocol: as §4
# [9] = target: T5, mouse β-amyloid (1-40) (mouse, UniProt P12023 672-711); experiment: SPR Biacore, same method as Table 2
# T5 construct: domain: β-amyloid (1-40)
# T5 peptide (looked up): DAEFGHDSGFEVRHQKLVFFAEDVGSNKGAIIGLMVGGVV
# Protocol: (§5) Purified mouse antibody preparations were captured on a polyclonal anti-mouse IgG antibody chip surface. Freshly prepared human β-amyloid 1-40 was diluted down in HBS-EP buffer and passed over the captured antibody surface at concentrations ranging from 4-500 nM for 5 minutes. […] Regeneration was achieved via a pulse of 100 mM H₃PO₄. […] All runs were double referenced against a blank surface and blank buffer injections.
# (§6) The same Biacore method was also used to investigate binding of 6F6 to human and mouse β-amyloid (1-40) and β-amyloid (1-42). 6F6 bound to all of these peptides with similar values.
# [10] = target: T6, mouse β-amyloid (1-42) (mouse, UniProt P12023 672-713); experiment: SPR Biacore, same method as Table 2
# T6 construct: domain: β-amyloid (1-42)
# T6 peptide (looked up): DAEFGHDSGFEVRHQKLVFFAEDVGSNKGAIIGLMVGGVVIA
# Protocol: as §5, §6
# [11] = target: T7, N-terminal coupled CGGGEDVGSNKGAIIGLMVGG (22-38) ovalbumin conjugate (coupled by the N-terminus to ovalbumin); experiment: FMAT bead immunoassay, culture supernatant
# T7 peptide: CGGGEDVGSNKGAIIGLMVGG
# Description: (§7) Each of the expressed antibodies contained in culture supernatant was then screened in an FMAT (Fluorescent Microvolume Assay Technology) homogenous immunoassay. 29 positive antibodies were identified from this screening cascade that were negative for ovalbumin protein passively absorbed to polystyrene beads but positive for: [0158] (i) N-terminal coupled […] (22-38) (SEQ ID No:73) ovalbumin conjugate bound to polystyrene beads, [0159] (ii) N-terminal biotinylated β-amyloid(1-40) peptide bound to streptavidin coated polystyrene beads, [0160] (iii) C-terminal biotinylated β-amyloid(1-40) peptide bound to streptavidin coated polystyrene beads and [0161] (iv) N-terminal biotinylated β-amyloid (24-34) peptide, residues 24-34 of β-amyloid being […] (SEQ ID No:8), bound to streptavidin coated polystyrene beads.
# [12] = target: T8, N-terminal biotinylated β-amyloid (24-34) peptide; experiment: FMAT bead immunoassay, culture supernatant
# T8 peptide: Biotin-VGSNKGAIIGL
# Description: as §7
# [13] = target: T9, ovalbumin protein (UniProt P01012 2-386); experiment: FMAT bead immunoassay, culture supernatant
# T9 sequence (looked up): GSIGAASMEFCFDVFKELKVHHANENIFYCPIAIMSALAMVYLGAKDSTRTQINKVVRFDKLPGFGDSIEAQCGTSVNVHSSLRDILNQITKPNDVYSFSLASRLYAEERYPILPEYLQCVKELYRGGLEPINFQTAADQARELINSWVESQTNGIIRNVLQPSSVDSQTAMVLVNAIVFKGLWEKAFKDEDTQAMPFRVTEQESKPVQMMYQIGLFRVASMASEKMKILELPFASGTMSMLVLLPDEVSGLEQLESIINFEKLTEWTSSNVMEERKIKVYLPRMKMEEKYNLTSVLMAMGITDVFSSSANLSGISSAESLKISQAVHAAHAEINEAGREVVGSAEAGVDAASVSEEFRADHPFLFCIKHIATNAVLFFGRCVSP
# Description: as §7
# [14] = target: T10, C-terminally biotinylated peptide representing 31-42 of the β-amyloid sequence; experiment: SPR Biacore 3000, biotinylated peptide on streptavidin chip
# T10 construct: Captured on a streptavidin sensorchip; also called peptide 31-42
# T10 peptide: IIGLMVGGVVIAGSG-biotin
# Protocol: (§8) Purified 6F6 monoclonal antibody was injected for 3 min at 8-64 nM over C-terminally biotinylated peptides representing 24-35 (SEQ ID No:10: […]), 28-39 (SEQ ID No:11: […]) and 31-42 (SEQ ID No:12: […]) of the β-amyloid sequence captured by a streptavidin coated sensorchip. The experiment was performed using a Biacore 3000 instrument. […] It may also indicate that residues 31-35 are not sufficient for binding 6F6 and residues above position 35 appear not to be involved in binding this antibody.
# [15] = target: T1, human β-amyloid 1-40; experiment: SPR Biacore 3000; mAb captured on anti-mouse IgG; triplicate run
# Protocol: as §5
# [16] = target: T1, human β-amyloid 1-40; experiment: SPR Biacore 3000; mAb captured on anti-mouse IgG, Aβ 1-40 at 4-500 nM
# Protocol: as §5
# [17] = target: T11, C-terminally biotinylated peptide representing 24-35 of the β-amyloid sequence; experiment: SPR Biacore 3000, biotinylated peptide on streptavidin chip, 6F6 at 8-64 nM
# T11 construct: Captured on a streptavidin sensorchip; also called peptide 24-35
# T11 peptide: VGSNKGAIIGLMGSG-biotin
# Protocol: as §8
# [18] = target: T12, C-terminally biotinylated peptide representing 28-39 of the β-amyloid sequence; experiment: as above
# T12 construct: Captured on a streptavidin sensorchip; also called peptide 28-39
# T12 peptide: KGAIIGLMVGGVGSG-biotin
# Protocol: as §8
binder,measurement,setting,value
B1,binding result,[1],binds
B2,binding result,[1],binds
B3,binding result,[2],no binding (tested: 30 ug/ml)
same,binding result,[3],no binding (tested: 30 ug/ml)
same,Kd,[4],2.89 nM and 3.11 nM
same,Kd,[5],2.47 nM and 2.46 nM
same,Kd,[6],4.91 nM
same,IC50,[7],0.588 µg/mL
same,IC50,[8],0.518 µg/mL
B4,binding result,[9],binds
same,binding result,[10],binds
same,binding result,[11],binds
same,binding result,[12],binds
same,binding result,[13],no binding
same,binding result,[14],no binding (tested: 8-64 nM)
same,Kd,[15],1.02 nM
same,koff,[15],9.4e-05 s⁻¹
same,kon,[15],99300 M⁻¹ s⁻¹
same,Kd,[16],0.62 nM
same,koff,[16],6.57e-05 s⁻¹
same,kon,[16],106000 M⁻¹ s⁻¹
same,binding result,[17],binds
same,binding result,[18],binds
B5,Kd,[5],1 nM
same,Kd,[6],3.74 nM
same,IC50,[7],0.566 µg/mL
same,IC50,[8],0.451 µg/mL
